Assay results as given in the supplement of paper PMC12042874.
± gives the uncertainty stated by the source.

Assay: amyloid nucleation score (Sup35N fusion, yeast selection) (log enrichment); library NNK3; higher = more nucleation; inactive = no reads after selection
Method in brief: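 For the nucleation score, DiMSum gave the log enrichment of output over input reads, centred on the mode score of non-aggregating sequences. Psi-negative yeast expressing Sup35N fused to peptides of 20 random codons were induced with 100 μM copper sulfate for 24 hours and grown 7 days at 30°C on medium lacking adenine and uracil. Input and output plasmid inserts were Illumina-sequenced, and sequences with under 100 input reads were excluded.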

Substance: YRIWEQTLMFYVNLSRAKCF
- amyloid nucleation score: inactive

Substance: YRLISCLVFISGRFSN
- amyloid nucleation score: inactive

Substance: YRLLEQLTLSCWANRVLRLG
- amyloid nucleation score: -0.077 ± 0.61

Substance: YRLRNCFRHMPAAQTFTP
- amyloid nucleation score: inactive

Substance: YRLYDQLRGYRGLAYLTYVL
- amyloid nucleation score: -0.187 ± 0.69

Substance: YRMIKHRTFDSPVLFS
- amyloid nucleation score: inactive

Substance: YRNCLLRDMSWVVDFIDIKT
- amyloid nucleation score: inactive

Substance: YRPAALSYQTRVCGTYWNDR
- amyloid nucleation score: inactive

Substance: YRPVQSVQIVHLLSILILVW
- amyloid nucleation score: inactive

Substance: YRRGYKITSLLSFYGNHRWP
- amyloid nucleation score: inactive

Substance: YRRSGTYMSDSGVLVVKVCV
- amyloid nucleation score: inactive

Substance: YRSLITLQAIRCGIWFCGLW
- amyloid nucleation score: inactive

Substance: YRSSDQDVTVIMCLLANYYN
- amyloid nucleation score: 2.37 ± 0.057

Substance: YRYVCWFTTILTYTNGRFSS
- amyloid nucleation score: inactive

Substance: YRYVNN
- amyloid nucleation score: inactive

Substance: YRYYFRSEVPEDKEDDGYLL
- amyloid nucleation score: inactive

Substance: YSALRFSKSCGRPCCVYNSF
- amyloid nucleation score: inactive

Substance: YSCYSSLL
- amyloid nucleation score: inactive

Substance: YSFHLIIESPKLVLFTHFTS
- amyloid nucleation score: inactive

Substance: YSGCRVLLQWVEFSCRWIWY
- amyloid nucleation score: inactive

Substance: YSGIRVLFYFSISDDFSQSI
- amyloid nucleation score: 0.756 ± 0.24

Substance: YSGTFDFLIKA
- amyloid nucleation score: inactive

Substance: YSGWVCWSLQLTYMTFNFRL
- amyloid nucleation score: inactive

Substance: YSHGTAKIPQAVVNDVIKSI
- amyloid nucleation score: inactive

Substance: YSHNLWLA
- amyloid nucleation score: inactive

Substance: YSHSGIRIKRLEASEYTWPS
- amyloid nucleation score: inactive

Substance: YSLEGSRSTVWRGVCCKLAF
- amyloid nucleation score: 0.092 ± 0.24

Substance: YSLFWCNNNVRGGKASMWYR
- amyloid nucleation score: inactive

Substance: YSLNTSFIYIKIRYH
- amyloid nucleation score: 1.28 ± 0.11

Substance: YSNGASLVWLVNVKK
- amyloid nucleation score: 2.19 ± 0.083

Substance: YSSANNCNWC
- amyloid nucleation score: 1.7 ± 0.077

Substance: YSSKIFHRLTK
- amyloid nucleation score: inactive

Substance: YSSMYFL
- amyloid nucleation score: inactive

Substance: YSTRVVRSTPWSKCSSPDME
- amyloid nucleation score: inactive

Substance: YSVNSTLLLYVSKYEFIPCV
- amyloid nucleation score: 0.169 ± 0.29

Substance: YSWRGIFNGWFFCFMARVLG
- amyloid nucleation score: inactive

Substance: YSYHS
- amyloid nucleation score: inactive

Substance: YSYNKFAVEVYLSSLHPEMM
- amyloid nucleation score: inactive

Substance: YTIPSPVGLVLDSPVEIRDL
- amyloid nucleation score: inactive

Substance: YTKMGTRLAFFWIRMMMRGR
- amyloid nucleation score: inactive

Substance: YTLAC
- amyloid nucleation score: inactive

Substance: YTLIIRLCFFNIGCAYRFSM
- amyloid nucleation score: inactive

Substance: YTLVVQTSMVVFLRLYSGRY
- amyloid nucleation score: inactive

Substance: YTSEFVIAAWSLLFDDRYMS
- amyloid nucleation score: inactive

Substance: YTSRFSSCLWESRSDEGRNM
- amyloid nucleation score: inactive

Substance: YTVEWWVINCFGGKADL
- amyloid nucleation score: inactive

Substance: YTWLVTVTDDGCRFEFSCEF
- amyloid nucleation score: inactive

Substance: YTYWG
- amyloid nucleation score: inactive

Substance: YVAYFSGIVLMHHSRDIQFP
- amyloid nucleation score: 0.496 ± 0.34

Substance: YVCVPCPCELSIQCCVTITF
- amyloid nucleation score: 2.01 ± 0.061

Substance: YVEMYN
- amyloid nucleation score: inactive

Substance: YVGFRAQHTNEDDGTTVCRP
- amyloid nucleation score: inactive

Substance: YVGVVVYLLPMLGALYGFGD
- amyloid nucleation score: inactive

Substance: YVILPLEAPFS
- amyloid nucleation score: 1.49 ± 0.095

Substance: YVKPIGYTIFLWTGLGSP
- amyloid nucleation score: inactive

Substance: YVLMGAYASVL
- amyloid nucleation score: inactive

Substance: YVMDNNFM
- amyloid nucleation score: inactive

Substance: YVNVSACNNGMLLGWQVG
- amyloid nucleation score: inactive

Substance: YVRSHHNMNRTMVFKTCPWQ
- amyloid nucleation score: inactive

Substance: YVSGKSSYIIF
- amyloid nucleation score: 0.116 ± 0.71

Substance: YVSTHLSVYTKSFRDMIAPG
- amyloid nucleation score: inactive

Substance: YVVFYHLAVALSLKMASKRI
- amyloid nucleation score: -0.826 ± 1.9

Substance: YVVSYPVGVRSNTHLLRIWR
- amyloid nucleation score: inactive

Substance: YVWRDLKAMGFVYAGVCGKA
- amyloid nucleation score: inactive

Substance: YVYRSRFKQDLRGFLFNFTY
- amyloid nucleation score: inactive

Substance: YWCLYLNSNCKMW
- amyloid nucleation score: 0.31 ± 0.44

Substance: YWRFAMYQCIQFSRR
- amyloid nucleation score: inactive

Substance: YWSIKELWRFRQLVWRKYIV
- amyloid nucleation score: inactive

Substance: YWVSSYCIPMCGYQVWCVWG
- amyloid nucleation score: inactive

Substance: YYAPVCYLSTKQGKARRPPP
- amyloid nucleation score: inactive

Substance: YYDCIALFNSKQGSYLHYWY
- amyloid nucleation score: inactive

Substance: YYGRNEVLYQSDNVRYSSSG
- amyloid nucleation score: inactive

Substance: YYLDRVYIFSTQDL
- amyloid nucleation score: 1.67 ± 0.065

Substance: YYLMLSIGQYSHTCMDGYVM
- amyloid nucleation score: inactive

Substance: YYMNVESALECECWTIFKPC
- amyloid nucleation score: inactive

Substance: YYSFFDIFCVITSRANFGRP
- amyloid nucleation score: 1.28 ± 0.17

Substance: YYSFKIDRLRFVRM
- amyloid nucleation score: inactive

Substance: YYVFVYLYSCVCFTGTGKSV
- amyloid nucleation score: inactive

Substance: YYVSYN
- amyloid nucleation score: inactive

Substance: YYVYSRGALLYHYILQMARL
- amyloid nucleation score: inactive
